Results reported in patent US20040229213A1 (INSTITUT PASTEUR, published 2004).

Biological target: the molecule itself
Assay: yeast two-hybrid two-by-two matrix, LacZ and HIS3 reporters

B1: HCV core protein, full length (strain H) (other)
chain: MSTNPKPQRKTKRNTNRRPQDVKFPGGGQIVGGVYLLPRRGPRLGVRATRKTSERSQPRGRRQPIPKARRPEGRTWAQPGYPWPLYGNEGCGWAGWLLSPRGSRPSWGPTDPRRRSRNLGKVIDTLTCGFADLMGYIPLVGAPLGGAARALAHGVRVLEDGVNYATGNLPGCSFSIFLLALLSCLTVPASA
notes: mature; also called capsid protein; full-length capsid
binding result: no binding
